{"source": "paper PMC1876262", "biological_target": "Bovine brain tubulin (bovine) (UniProt Q6B856)", "sequence (Q6B856 whole entry, looked up)": "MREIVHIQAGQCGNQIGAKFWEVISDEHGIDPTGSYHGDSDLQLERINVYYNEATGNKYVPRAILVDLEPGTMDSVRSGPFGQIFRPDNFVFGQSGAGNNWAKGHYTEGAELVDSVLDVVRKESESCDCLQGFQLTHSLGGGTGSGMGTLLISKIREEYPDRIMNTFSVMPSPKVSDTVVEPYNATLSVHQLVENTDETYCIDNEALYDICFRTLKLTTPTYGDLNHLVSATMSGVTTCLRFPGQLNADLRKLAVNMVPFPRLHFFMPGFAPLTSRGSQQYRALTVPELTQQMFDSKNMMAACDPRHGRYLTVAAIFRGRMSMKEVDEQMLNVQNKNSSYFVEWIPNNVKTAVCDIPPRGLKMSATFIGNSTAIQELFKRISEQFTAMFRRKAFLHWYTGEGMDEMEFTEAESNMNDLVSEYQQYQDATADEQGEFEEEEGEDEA"}
{"binder": "wt human αB crystallin (natural protein) MDIAIHHPWIRRPFFPFHSPSRLFDQFFGEHLLESDLFPTSTSLSPFYLRPPSFLRAPSWFDTGLSEMRLEKDRFSVNLDVKHFSPEELKVKVLGDVIEVHGKHEERQDEHGFISREFHRKYRIPADVDPLTITSSLSSDGVLTVNGPRKQVSGPERTIPITREEKPAVTAAPKK", "values": [{"measurement": "decrease of thermal aggregation of tubulin: OD340 at 52°C for 60 min (Figure 4)", "result": 65, "unit": "%"}]}
